Consider one molecule from patent publication US20200030416A1 (CASE WESTERN RESERVE UNIVERSITY, published 2020).

For the experiment, the target named is T1, integrin GPIIb-IIIa on ADP-activated human platelets (human, UniProt P08514 32-1039; P05106 27-788).
T1 construct: whole, on cells; no isolated integrin was tested; also called active platelet GPIIb-IIIa
Kind of experiment: human platelets (low platelet concentration, ADP) incubated on coverslips coated with cRGD-modified biotinylated liposomes; anti-CD62P fluorescence microscopy.

Description: LPC was obtained as described previously and incubated with the construct-coated coverslips for 1 hr in the absence or in presence of platelet agonist ADP, under gentle agitation. Post-incubation, the coverslips were gently washed with PBS to remove loosely-bound platelets from the construct-coated surface. […] These stained coverslips were mounted onto glass slides and the fluorescence of active platelets aggregated onto the coverslips was imaged using inverted fluorescence microscopy. […] Platelet aggregation was quantified as the percentage of coverslip surface area covered by platelet fluorescence. All statistical analysis was performed using ANOVA and significance was considered as p<0.05.

B1: cyclic RGD peptide cyclo-CNPRGDY(OEt)RC (cRGD), conjugated to DSPE-PEG and displayed on liposomes (peptide)
peptide: CNPRGDYRC
modifications: not fully specified; cyclised by a disulphide between the terminal cysteines; Y(OEt) = O-ethyl tyrosine; N-terminus conjugated to DSPE-PEG2000-COOH; many copies on a ~150 nm liposome
notes: Tested only as a multivalent decoration on liposomes (2.5 mol %); also called GBP
Consider B1, for which the binding result is “binds”.
